Patent publication US20230295305A1 (GRITSTONE BIO, published 2023)
Changes are numbered by the printed parent chain.

B1: 5G06NT Format 41 diabody bispecific antibody (anti-G8 x anti-CD3) (bispecific antibody, V domains shown)
VH: EVQLLESGGGLVQPGGSLRLSCAASGFTFSDYYMSWVRQAPGKGLEWVSGINWPGGSTGYADSVKGRFTISRDNSKNTLYLQMNSLRAEDTAVYYCARVEQGYDIYYFYYMDVWGKGTTVTVSS
VL: DIQMTQSPSSLSASVGDRVTITCRASQSISSYLNWYQQKPGKAPKLLIYKASSLESGVPSRFSGSGSGTDFTLTISSLQPEDFATYYCQQSYSAPYTFGPGTKVDIK
B2: 1B03 (G8-1B03, Parent A) Format 41 diabody bispecific antibody (anti-G8 x anti-CD3) (bispecific antibody, V domains shown)
VH: B1 VH with P54N, F108Y
VL: B1 VL
B3: 09G01 scFv (scFv, V domains shown)
VH: B1 VH with G50V, G56S, F108Y
VL: B1 VL
notes: As m4: periplasmic-extract scFv
B4: 05G09 scFv (scFv, V domains shown)
VH: B1 VH with S49G, G59D, F108Y
VL: B1 VL
notes: As m4; also called 0509
B5: 05A08 scFv (scFv, V domains shown)
VH: B1 VH with F27Y, S49G, G50N, P54N, G59L, I105N, F108Y
VL: B1 VL
notes: as for B3
B6: 05A03 scFv (scFv, V domains shown)
VH: B1 VH with F27Y, F108Y
VL: B1 VL
notes: as for B3
B7: 09D01 scFv (scFv, V domains shown)
VH: B1 VH with P54H, G55H, F108Y
VL: B1 VL
notes: as for B3
B8: 05C04 scFv (scFv, V domains shown)
VH: B1 VH with F27Y, S57Y, F108Y
VL: B1 VL
notes: as for B3
B9: 09D06 scFv (scFv, V domains shown)
VH: B1 VH with G56S, E100R, I105Y, F108Y
VL: B1 VL
notes: as for B3
B10: 05G06 scFv (scFv, V domains shown)
VH: B1 VH with T69N
VL: B1 VL
notes: As m4: periplasmic-extract scFv; also called 04A11

molecular target: T1, CD3 on CD3+ Jurkat cells; assay: flow cytometry, Format 41 bispecific on CD3+ Jurkat cells
T1 construct: whole, on cells
T1 sequence (P07766 23-207): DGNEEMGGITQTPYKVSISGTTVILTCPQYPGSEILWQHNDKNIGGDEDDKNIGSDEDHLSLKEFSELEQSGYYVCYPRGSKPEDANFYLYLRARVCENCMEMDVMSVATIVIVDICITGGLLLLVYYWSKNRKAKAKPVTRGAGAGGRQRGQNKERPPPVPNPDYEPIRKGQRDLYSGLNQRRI

| Binder | EC50 [nM] |
| --- | --- |
| B1 | 41 |
| B2 | 161 |

molecular target: T2, HLA-A*02:01 / … complex (HLA-PEPTIDE target G8) on cells (human); assay: flow cytometry, Format 41 bispecific on A375 cells expressing ~300,000 copies of the pHLA 10mer
T2 construct: whole, on cells; also called target pHLA; pHLA 10mer

| Binder | EC50 [nM] |
| --- | --- |
| B1 | 0.11 |
| B2 | 72.8 |

molecular target: T3, biotinylated pHLA: HLA subtype A*02:01 complexed with … (HLA-PEPTIDE target G8) (human); assay: MSD specificity ratio; threshold for selection of the 12 hit clones of Table 14
T3 construct: Soluble biotinylated pHLA coupled to U-PLEX linker 1 in the MSD assay; also called pHLA target
Protocol: G8 scFv screening was conducted using the Meso Scale Discovery U-PLEX Development Pack, 9-assay (cat. No. K15234N). The pack contains a 10-spot U-PLEX plate with 9 activated spots and 9 unique linkers as well as stop solution and read buffer. Biotinylated pHLA and biotinylated Protein L were each diluted to 33 nM using PBS+0.5% BSA. For each plate, 200 μL of the diluted pHLA or protein L was mixed with 300 μL of the corresponding Linker (see Table 9) and incubated at room temperature for 30 minutes.
Following the 30-minute incubation, 200 μL stop solution was added to each linker-pHLA solution. They were again incubated for 30 minutes at room temperature. These volumes were scaled based on the number of plates. The linker-pHLA solutions were then a 10× solution. They were then pooled together and further diluted with stop solution to the final 1× concentration. For example, for one plate with one linker, 600 μL pHLA would be diluted with 5.4 mL stop solution for the 1× concentration with a total volume of 6 mL. For one plate using 8 linkers, 600 μL of each linker was pooled to give 4.8 mL volume and 1.2 mL additional stop solution added for the final 6 mL volume. All volumes were scaled for additional plates. The pooled linker-pHLA solution was then coated onto the 10-spot plate as 50 μL/well, the plate sealed and stored at 4° C. overnight.
Samples, periplasmic extracts (PPE) were diluted 40-fold with PBS+1% BSA. The plate was washed 3 times with PBS+0.05% Tween and samples added as 50 μL/well. Plates were incubated at room temperature shaking for 2 hours. The plates were washed as before and 50 μL of 1 μg/mL SulfoTag anti-Myc tag (Abcam, ab206486) was added to each well. The anti-Myc tag antibody was sulfo-tag labeled using the MSD Gold Sulfo-tag NHS-Ester Conjugation kit (Meso Scale Discovery, R31AA-2) at a challenge ratio of 10. The plates were incubated for 1 hour shaking at room temperature. The plate wash was repeated and 150 μL 2× Read Buffer T (Meso Scale Discovery, R92TC-2) was added to all wells and the plate read immediately on the Quickplex SQ 120.

| Binder | target/OTLA specificity [ratio] |
| --- | --- |
| B3 | > 50 |
| B4 | > 50 |
| B5 | > 50 |
| B6 | > 50 |
| B7 | > 50 |
| B8 | > 50 |
| B9 | > 50 |
| B10 | > 50 |

molecular target: T2, HLA-A*02:01 / … complex (HLA-PEPTIDE …); assay: cell-based or functional assay

| Binder | EC 50 (nM), cytotoxicity of A375 FoxE1 cells [nM] |
| --- | --- |
| B1 | 0.08 |
